Source: patent publication US20030103978A1 (Amgen, published 2003)

T1: human OPGbp[143-317] (human, UniProt O14788 143-317)
T1 sequence (looked up): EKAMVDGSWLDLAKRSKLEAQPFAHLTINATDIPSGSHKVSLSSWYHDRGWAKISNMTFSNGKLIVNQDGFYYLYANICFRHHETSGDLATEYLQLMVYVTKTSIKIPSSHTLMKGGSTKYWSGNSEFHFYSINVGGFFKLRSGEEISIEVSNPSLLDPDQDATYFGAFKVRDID

T2: FLAG-murine OPGbp[158-316]/DE (murine, UniProt O35235 158-316)
T2 construct: Produced in E. coli; also called FLAG-mouse OPGbp/DE; DE variant
T2 sequence: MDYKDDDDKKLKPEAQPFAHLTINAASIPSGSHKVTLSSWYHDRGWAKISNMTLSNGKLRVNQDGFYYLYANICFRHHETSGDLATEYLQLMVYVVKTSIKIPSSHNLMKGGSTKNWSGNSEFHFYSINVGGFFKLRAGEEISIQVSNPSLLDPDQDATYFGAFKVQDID


Key:
[1] = target: T1, human OPGbp[143-317]; test: cell-based or functional assay
[2] = target: T1, human OPGbp[143-317]; test: EIA: plate coated with human OPGbp[143-317] at 3 ug/ml, AT antibody in twofold steps 1.953-2000 ng/ml, goat anti-human IgG (Fc) conjugate, ABTS, absorbance at 405 nm
Experimental: (§1) After overnight incubation, the protein solutions were removed from the plate and 200 μl of 5% Chicken Serum (Gibco/BRL Cat# 16110-082) in PBST (PBS plus 0.05% Tween 20) was added to each well of the plate and plates were incubated at room temperature (RT) for 90 min with agitation. After incubation and blocking, plates were washed 4 times with 1×K-P wash solution in dH₂O (Cat#50-63-00, Kirkegaard & Perry Laboratories) and dried. […] Plates were incubated for three hours at room temperature with agitation, washed four times with 1×K-P wash solution and dried. Goat anti-human IgG (Fc) (Jackson ImmunoResearch, Cat# 109-036-098) was diluted 1:5000 in 5% Chicken Serum in PBST and 100 μl was added to each well. […] 100 μl of undiluted ABTS substrate (Kirkegaard & Perry; Cat# 50-66-00) was added to each well and the dish was incubated at room temperature until sufficient blue-green color developed. Color development was stopped by addition of 100 μl 1% SDS. Quantitation of color development was performed using a microtiter plate reader with detection at 405 nm.

[3] = target: T2, FLAG-murine OPGbp[158-316]/DE; test: EIA: plate coated with FLAG-murine OPGbp[158-316]/DE at 3 ug/ml, AT antibody in twofold steps 1.953-2000 ng/ml, goat anti-human IgG (Fc) conjugate, ABTS, absorbance at 405 nm
Experimental: as §1

[4] = target: T1, human OPGbp[143-317]; test: SPR (BIAcore), immobilized OPGbp[143-317]

| Binder | koff [4] [s⁻¹] | also measured |
| --- | --- | --- |
| Fab “Y” (Fab, V domains shown) VH: EVQLVQSGAEVRKPGASVKVSCKASGYDFSNYAIHWVRQAPGQRLEWMGWINAGNGNTKFSQKFQGRITVTRDTAASTAYMELRSLRSEDTAVYYCARDSSNMVRGIIIAYYFDYWGQGTLVTVSS VL: EIVLTQSPATLSFSPGERATLSCRASQSVGSYLAWYQQRPGQAPRPLIYDATNRATGIPTRFSGSGSGTDFTLTISSLEPEDFATYYCQHRRTFGRGTKLEIKR | – | murine bone marrow assay, TRAP in solution (pNPP), IC50 [1]: 212 nM |
| “AT” antibody (antibody, human IgG1, V domains shown, Full-length antibody from CHO cells: Fab “AT” heavy chain variable region joined to human IgG1 CH1, hinge, CH2 and CH3; light chain of Fab “AT” (kappa); the mature antibodies are identical; also called “AT” Ab; “AT” Nb) VH: QVQLVQSGAEVRKPGASVKVSCKASGYDFSNYAIHWVRQAPGQRLEWMGWINAGNGNTKFSQKFQGRITVTRDTAASTAYMELRSLRSEDTAVYYCARDSSNMVRGIIIAYYFDYWGQGTLVTVSS VL: EIVMTQSPSSLSASVGDRVTITCRASQSISRYLNWYQLKPGKAPRLLIYGASSLQSGVPSRFSGSGSGAEFTLTISSLQPEDIATYYCQHTRAFGQGTKVEIKR | – | EC50 (read off the curve) [2]: ~0.01 µg/mL; EC50 (read off the curve) [3]: ~0.02 µg/mL |
| “AT” Fab S96A (Fab, V domains shown, The Fab carried a 6xHis tag. Its chain and terminus are not stated, so it is left out., His-tagged Fab) VH: QVQLVQSGAEVRKPGASVKVSCKASGYDFSNYAIHWVRQAPGQRLEWMGWINAGNGNTKFSQKFQGRITVTRDTAASTAYMELRSLRSEDTAVYYCARDASNMVRGIIIAYYFDYWGQGTLVTVSS VL: EIVMTQSPSSLSASVGDRVTITCRASQSISRYLNWYQLKPGKAPRLLIYGASSLQSGVPSRFSGSGSGAEFTLTISSLQPEDIATYYCQHTRAFGQGTKVEIKR | 0.0072 | – |
| “AT” Fab D95A (Fab, V domains shown, The Fab carried a 6xHis tag. Its chain and terminus are not stated, so it is left out., His-tagged Fab) VH: QVQLVQSGAEVRKPGASVKVSCKASGYDFSNYAIHWVRQAPGQRLEWMGWINAGNGNTKFSQKFQGRITVTRDTAASTAYMELRSLRSEDTAVYYCARASSNMVRGIIIAYYFDYWGQGTLVTVSS VL: EIVMTQSPSSLSASVGDRVTITCRASQSISRYLNWYQLKPGKAPRLLIYGASSLQSGVPSRFSGSGSGAEFTLTISSLQPEDIATYYCQHTRAFGQGTKVEIKR | – | binding result [4]: no binding |

Further lines, with some results ahead:

| koff [4] [s⁻¹] | Binder | also measured |
| --- | --- | --- |
| 0.012 | “AT” Fab N98A (Fab, V domains shown, The Fab carried a 6xHis tag. Its chain and terminus are not stated, so it is left out., His-tagged Fab) VH: QVQLVQSGAEVRKPGASVKVSCKASGYDFSNYAIHWVRQAPGQRLEWMGWINAGNGNTKFSQKFQGRITVTRDTAASTAYMELRSLRSEDTAVYYCARDSSAMVRGIIIAYYFDYWGQGTLVTVSS VL: EIVMTQSPSSLSASVGDRVTITCRASQSISRYLNWYQLKPGKAPRLLIYGASSLQSGVPSRFSGSGSGAEFTLTISSLQPEDIATYYCQHTRAFGQGTKVEIKR | – |
| 0.127 | “AT” Fab D110A (Fab, V domains shown, His-tagged Fab) VH: QVQLVQSGAEVRKPGASVKVSCKASGYDFSNYAIHWVRQAPGQRLEWMGWINAGNGNTKFSQKFQGRITVTRDTAASTAYMELRSLRSEDTAVYYCARDSSNMVRGIIIAYYFAYWGQGTLVTVSS VL: EIVMTQSPSSLSASVGDRVTITCRASQSISRYLNWYQLKPGKAPRLLIYGASSLQSGVPSRFSGSGSGAEFTLTISSLQPEDIATYYCQHTRAFGQGTKVEIKR | – |
| 0.414 | “AT” Fab Y111A (Fab, V domains shown, His-tagged Fab) VH: QVQLVQSGAEVRKPGASVKVSCKASGYDFSNYAIHWVRQAPGQRLEWMGWINAGNGNTKFSQKFQGRITVTRDTAASTAYMELRSLRSEDTAVYYCARDSSNMVRGIIIAYYFDAWGQGTLVTVSS VL: EIVMTQSPSSLSASVGDRVTITCRASQSISRYLNWYQLKPGKAPRLLIYGASSLQSGVPSRFSGSGSGAEFTLTISSLQPEDIATYYCQHTRAFGQGTKVEIKR | – |
| 0.0062 | “AT” Fab S97A (Fab, V domains shown, The Fab carried a 6xHis tag. Its chain and terminus are not stated, so it is left out., His-tagged Fab) VH: QVQLVQSGAEVRKPGASVKVSCKASGYDFSNYAIHWVRQAPGQRLEWMGWINAGNGNTKFSQKFQGRITVTRDTAASTAYMELRSLRSEDTAVYYCARDSANMVRGIIIAYYFDYWGQGTLVTVSS VL: EIVMTQSPSSLSASVGDRVTITCRASQSISRYLNWYQLKPGKAPRLLIYGASSLQSGVPSRFSGSGSGAEFTLTISSLQPEDIATYYCQHTRAFGQGTKVEIKR | – |
